Reference: US20240368565A1, “COMPLEMENTATION-BASED TAGS AND REPORTERS FOR DUAL-MODALITY LABELING” (Promega Corporation, priority 2023, published 2024)
Residue numbers refer to the chain shown, from its start. Names may count otherwise.

Tests used:
[1] = test system: synthetic HaloTag[3-19] peptide; experiment: Stabilization of activity of LgHT-LgBiT variants by synthetic peptides in E. coli lysates; format: biochemical; conditions: 10 micromolar or more synthetic peptide, 10 minutes at temperature, 50 nM JF646 HaloTag ligand
[2] = 10 nM protein, 125 micromolar HaloTag[3-19] synthetic peptide, 10 minutes, 2.5 nM TMR HaloTag ligand
[3] = Labeling kinetics of LgHT-LgBiT variants with TMR HaloTag ligand in E. coli lysates (fluorescence polarization); format: biochemical; conditions: 200 micromolar HaloTag[3-19] synthetic peptide, 10 nM TMR HaloTag ligand, versus M2F control
DualTag peptide [4] = experiment: BRET measurement of reporter stabilization by synthetic peptide; format: biochemical; conditions: room temperature, HaloTag NanoBRET 618 Ligand, versus LgHT-LgBiT alone
Description: FIG. 122A-C. […] After preincubation with peptide at 4° C., solutions were diluted 100-fold into buffer and incubated at room temperature. At time points, samples were added 1:1 to buffer either containing or lacking 10 nM final HaloTag® NanoBRET® 618 Ligand. For the reporter alone condition, samples were added 1:1 to a solution containing 10 nM final VS-HiBiT peptide with or without the 618 ligand in order to complement the LgBiT to create the BRET donor. After the last time point, furimazine substrate was added, followed by measuring the FIG. 122(A) luminescent donor signal using a 450 nm bandpass filter and FIG. 122(B) luminescent acceptor signal using a 600 nm longpass filter. The BRET ratio FIG. 122(C) is determined by dividing the acceptor signal by the donor signal for each sample.

DualTag peptide [5] = experiment: Dissociation kinetics after complementation with synthetic peptide (dilution, luminescence); conditions: 100 nM protein, 200 nM peptide, diluted to 1 pM, furimazine
Description: After preincubation with peptide, samples were diluted to 1 pM in either buffer alone or buffer 100 nM Tag peptide. At various time points, samples were transferred into luminescent substrate (Furimazine) to monitor dissociation of the complex.

[6] = Labeling kinetics with various HaloTag ligands (fluorescence polarization); format: biochemical; conditions: proteins at 10 nM, ligand at 2.5 nM, Tris-buffered saline+0.01% CHAPS
Description: FIG. 132. Labeling kinetics of HaloTag7 and HaloTag[22-297](M2F+D53G+K140E)-12×Gly/Ser-LgBiT-3×Gly/Ser-6×His with HaloTag ligand JF549. Fluorescence polarization was monitored over time to observe labeling kinetics of JF549 HaloTag ligand by HaloTag standard protein or HaloTag[22-297](M2F+D53G+K140E)-12×Gly/Ser-LgBiT-3×Gly/Ser-6×His. The experiment was completed in Tris-buffered saline+0.01% CHAPS with proteins at 10 nM and ligand at 2.5 nM.
FIG. 133. Labeling kinetics of HaloTag7 and HaloTag[22-297](M2F+D53G+K140E)-12×Gly/Ser-LgBiT-3×Gly/Ser-6×His with HaloTag ligand JF503. Fluorescence polarization was monitored over time to observe labeling kinetics of JF503 HaloTag ligand by HaloTag standard protein or HaloTag[22-297](M2F+D53G+K140E)-12×Gly/Ser-LgBiT-3×Gly/Ser-6×His. The experiment was completed in Tris-buffered saline+0.01% CHAPS with proteins at 10 nM and ligand at 2.5 nM.
FIG. 134. Labeling kinetics of HaloTag7 and HaloTag[22-297](M2F+D53G+K140E)-12×Gly/Ser-LgBiT-3×Gly/Ser-6×His with HaloTag ligand JFX554. Fluorescence polarization was monitored over time to observe labeling kinetics of JFX554 HaloTag ligand by HaloTag standard protein or HaloTag[22-297](M2F+D53G+K140E)-12×Gly/Ser-LgBiT-3×Gly/Ser-6×His. The experiment was completed in Tris-buffered saline+0.01% CHAPS with proteins at 10 nM and ligand at 2.5 nM.
FIG. 135. Labeling kinetics of HaloTag7 and HaloTag[22-297](M2F+D53G+K140E)-12×Gly/Ser-LgBiT-3×Gly/Ser-6×His with HaloTag ligand Oregon Green. Fluorescence polarization was monitored over time to observe labeling kinetics of Oregon Green HaloTag ligand by HaloTag standard protein or HaloTag[22-297](M2F+D53G+K140E)-12×Gly/Ser-LgBiT-3×Gly/Ser-6×His. The experiment was completed in Tris-buffered saline+0.01% CHAPS with proteins at 10 nM and ligand at 2.5 nM.
FIG. 136. Labeling kinetics of HaloTag7 and HaloTag[22-297](M2F+D53G+K140E)-12×Gly/Ser-LgBiT-3×Gly/Ser-6×His with a FAM HaloTag ligand. Fluorescence polarization was monitored over time to observe labeling kinetics of FAM HaloTag ligand by HaloTag standard protein or HaloTag[22-297](M2F+D53G+K140E)-12×Gly/Ser-LgBiT-3×Gly/Ser-6×His. The experiment was completed in Tris-buffered saline+0.01% CHAPS with proteins at 10 nM and ligand at 2.5 nM.

B1: D53G+V177E: reporter variant of FIG. 50 (protein)
chain: MFHYVDVGPRDGTPVLFLHGNPTSSYVWRNIIPHVAPTHRCIAPDLIGMGKSGKPDLGYFFDDHVRFMDAFIEALGLEEVVLVIHDWGSALGFHWAKRNPERVKGIAFMEFIRPIPTWDEWPEFARETFQAFRTTDVGRKLIIDQNVFIEGTLPMGVVRPLTEVEMDHYREPFLNPEDREPLWRFPNELPIAGEPANIVALVEEYMDWLHQSPVPKLLFWGTPGVLIPPAEAARLAKSLPNCKAVDIGPGLNLLQEDNPDLIGSEIARWLSTLEISGGSGGSGGGGSGGMVFTLEDFVGDWEQTAAYNLDQVLEQGGVSSLLQNLAVSVTPIQRIVRSGENALKIDIHVIIPYEGLSADQMAQIEEVFKVVYPVDDHHFKVILPYGTLVIDGVTPNMLNYFGRPYEGIAVFDGKKITVTGTLWNGNKIIDERLITPDGSMLFRVTINS
Optimal temperature of peptide stabilization versus the non-peptide condition [1]: ~35 °C

B2: M49F+S89A: reporter variant of FIG. 51 (protein)
chain: B1 chain with M49F, G53D, S89A, E177V
Optimal temperature of peptide stabilization versus the non-peptide condition [1]: ~35 °C

B3: M49F+L57I: reporter variant of FIG. 52 (protein)
chain: B1 chain with M49F, G53D, L57I, E177V
Optimal temperature of peptide stabilization versus the non-peptide condition [1]: ~40 °C

B4: M2F+D53S+V177E: more highly stabilized purified reporter variant of FIG. 60 (protein)
chain: B1 chain with G53S
Loss of activity at 37° C. temperature challenge [2]: loses less than half of its activity

B5: M2F+D53G+V177E: reporter variant of FIG. 53 (protein)
chain: MFHYVDVGPRDGTPVLFLHGNPTSSYVWRNIIPHVAPTHRCIAPDLIGMGKSGKPDLGYFFDDHVRFMDAFIEALGLEEVVLVIHDWGSALGFHWAKRNPERVKGIAFMEFIRPIPTWDEWPEFARETFQAFRTTDVGRKLIIDQNVFIEGTLPMGVVRPLTEVEMDHYREPFLNPEDREPLWRFPNELPIAGEPANIVALVEEYMDWLHQSPVPKLLFWGTPGVLIPPAEAARLAKSLPNCKAVDIGPGLNLLQEDNPDLIGSEIARWLSTLEISGGSGGSGGGGSGGMVFTLEDFVGDWEQTAAYNLDQVLEQGGVSSLLQNLAVSVTPIQRIVRSGENALKIDIHVIIPYEGLSADQMAQIEEVFKVVYPVDDHHFKVILPYGTLVIDGVTPNMLNYFGRPYEGIAVFDGKKITVTGTLWNGNKIIDERLITPDGSMLFRVTINSGSGHHHHHH
Labeling with TMR HaloTag ligand, response to synthetic peptide complementation [3]: faster ligand binding and labeling

B6: M2F+K140E: reporter variant of FIG. 54 and 58 (protein)
chain: B5 chain with G53D, K140E, E177V
Labeling with TMR HaloTag ligand, response to synthetic peptide complementation [3]: better fold response to complementation with the peptide

B7: LgHT-LgBiT: tandem polypeptide reporter (Reporter) of FIG. 120, 122, 124 (protein)
chain: B5 chain with G53D, E177V
LgBiT luminescence and LgHT ligand binding activity over time (Raw BRET ratio) (DualTag peptide [4]): remain intact for longer | Dissociation from the DualTag peptide (DualTag peptide [5]): exceptionally slow dissociation kinetics

B8: M2F+D53G+K140E: triple mutant reporter, best candidate protein (protein)
chain: B5 chain with K140E, E177V
Labeling with TMR HaloTag ligand, response to synthetic peptide complementation [3]: best dynamic range of all combinations tested | Function with FAM HaloTag ligand [6]: functional | Function with JF503 HaloTag ligand [6]: functional | Function with JF549 HaloTag ligand [6]: functional | Function with JFX554 HaloTag ligand [6]: functional | Function with Oregon Green HaloTag ligand [6]: functional

B9: LgBiT: polypeptide component of a bioluminescent complex (β1-9-like polypeptide) (protein)
chain: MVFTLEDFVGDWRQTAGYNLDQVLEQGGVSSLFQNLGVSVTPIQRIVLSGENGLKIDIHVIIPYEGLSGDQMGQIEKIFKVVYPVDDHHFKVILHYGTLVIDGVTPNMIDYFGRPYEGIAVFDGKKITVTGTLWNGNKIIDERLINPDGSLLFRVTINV
Dissociation from the DualTag peptide (DualTag peptide [5]): faster dissociation
